Laboratory results: patent US9273095B2, “Antibiotic peptide and preparation method therefor and application therefor” (priority 2011, dated 2016)

Columns and labels:
[1] = RP-HPLC temperature profiling: hydrophobicity and self-association; type: physicochemical
Procedure: Peptides are analyzed on an Agilent 1200 series liquid chromatograph (Little Falls, Del.). Runs are performed on a Zorbax 300 SB-C8 column (150×4.6 mm I.D.; 5 μm particle size, 300 Å pore size) from Agilent Technologies using linear AB gradient (1% acetonitrile/min) and a flow rate of 1 ml/min, where solvent A is 0.05% aqueous TFA, pH 2 and solvent B is 0.05% TFA in acetonitrile.
We further use temperature profiling during RP-HPLC to determine the self-association ability of various analogs of PL-13 (SEQ ID NO: 1) which would occur through interaction of the non-polar faces of these amphipathic peptides α-helices. We use 50% TFE aqueous acetonitrile and hydrophobic conditions in the reversed-phase column (hydrophobic stationary phase and the hydrophobic organic solvent in the mobile phase) since the hydrophobic environment of a reversed-phase column also could induce α-helical structure. Since its introduction, the technique of RP-HPLC temperature profiling has been applied on several types of molecules, including cyclic β-sheet peptides, monomeric α-helices and α-helices that dimerize, as well as α-helices that dimerize to form coiled-coils. Although peptides are eluted from a reversed-phase column mainly by an adsorption/desorption mechanism, even a peptide strongly bound to a hydrophobic stationary phase will partition between the matrix and the mobile phase when the acetonitrile content becomes high enough during gradient elution. In summary, the mechanism is based on four assumptions: (i) at low temperature, just as an amphipathic α-helical peptide is able to dimerize in aqueous solution (through its hydrophobic, non-polar face), it will dimerize in solution during partitioning in reversed-phase chromatography; (ii) at higher temperatures, the monomer-dimer equilibrium favors the monomer as the dimer is disrupted; (iii) at sufficiently high temperatures, only monomer is present in solution; and (iv) peptide is always bound in its monomeric helical form to the hydrophobic stationary phase, i.e., the dimer can only be present in solution and disruption of the dimer is required for rebinding to the RP-HPLC matrix.
([θ]222=−3,950). Since peptide C is a monomeric random coil peptide in both aqueous and hydrophobic media, its retention behavior over the temperature range 5-80° C. represents only general temperature effects on peptide retention behavior, i.e., a linear decrease in peptide retention time with increasing temperature due to greater solute diffusivity and enhanced mass transfer between the stationary and mobile phases at higher temperatures. Thus, after normalization to the retention times of peptide C, the retention behavior of the peptides only represents peptide self-association ability. Note that the higher the PA value, the greater the self-association ability. The order of peptide self-association ability of the three pairs of peptide enantiomers is identical to the order of peptide hydrophobicity. Apart from the decrease in retention time due to the general temperature effects noted above, destruction of the α-helix will also occur with increasing temperature, resulting in reduced retention times as the peptides become increasingly random coils.
The retention time data for the peptides is shown in Table 6 which records retention times at 5° C., the maximal retention times and retention times at 80° C. during the temperature profiling. Temperatures of 5-80° C. are the lower and upper temperature limits of temperature profiling in RP-HPLC, representing polymerization of the peptides at 5° C. and the monomerization of peptides at 80° C. due to denaturation of peptides by high temperature and dissociation of the polymers. The maximal retention times represent the threshold points at which peptides totally transform from polymeric to monomeric form. […]

[2] = Circular dichroism (CD) spectroscopy, helical structure; type: physicochemical; conditions: 50% trifluoroethanol (TFE), 5° C.

Substance: Ac-ELEKGGLEGEKGGKELEK-amide (Ac-ELEKGGLEGEKGGKELEK-NH2) [reference compound]
- tR(min) 5° C. ([1]; RP-HPLC temperature profiling, 5° C.): 22.56 min
- tR(min) 80° C. ([1]; RP-HPLC temperature profiling, 80° C.): 19.91 min
- tR(min) Max ([1]; maximal retention time during temperature profiling 5-80° C.): 22.56 min
- [θ]222 [2]: −3,950
